Measured values as given in patent publication US20140045930.

What was measured:
[1] = target: T1, octameric peptide AVSEATIR
T1 chain: AVSEATIR

[2] = target: T2, peptide AQYPQEVITTVRG (PhoP)
T2 chain: AQYPQEVITTVRG

[3] = target: T3, peptide ATVAKCVEALKERFQASLRD (PheT)
T3 chain: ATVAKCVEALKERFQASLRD

[4] = target: T4, peptide ELNREQKWQMMLSKSMRR (CaiF)
T4 chain: ELNREQKWQMMLSKSMRR

[5] = target: T5, peptide KHVQALDLSMRFR (Nicotinate-nucleotide diphosphorylase)
T5 chain: KHVQALDLSMRFR

[6] = target: T6, peptide KLLRLFFPLSLRV (PhoQ)
T6 chain: KLLRLFFPLSLRV

[7] = target: T7, peptide KTPLAVLQSTLRS (PhoQ)
T7 chain: KTPLAVLQSTLRS

[8] = target: T8, peptide KTPLAVLQSTLRSLR (PhoQ)
T8 chain: KTPLAVLQSTLRSLR

[9] = target: T9, peptide KWQMMLSKSMRR (CaiF)
T9 chain: KWQMMLSKSMRR

[10] = target: T10, peptide LAVLQSTLRSLRS (PhoQ)
T10 chain: LAVLQSTLRSLRS

[11] = target: T11, peptide LLRLFFPLSLRV (PhoQ)
T11 chain: LLRLFFPLSLRV

[12] = target: T12, peptide LTELNREQKWQMMLSKSMRR (CaiF)
T12 chain: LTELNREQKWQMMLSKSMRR

[13] = target: T13, peptide LTHSLKTPLAVLQSTLRS (PhoQ)
T13 chain: LTHSLKTPLAVLQSTLRS

[14] = target: T14, peptide NTHRGMGYSLRGL (CreB)
T14 chain: NTHRGMGYSLRGL

[15] = target: T15, peptide RLLPAVSEATIRRL
T15 chain: RLLPAVSEATIRRL

[16] = target: T16, peptide VAKCVEALKERFQASLRD (PheT)
T16 chain: VAKCVEALKERFQASLRD

[17] = target: T17, peptide VEALKERFQASLRD (Phenylalanyl-tRNA synthetase)
T17 chain: VEALKERFQASLRD

B1: Recombinant YcfD, N-terminally hexa-His tagged (E. coli) (protein)
chain: MEYQLTLNWPDFLERHWQKRPVVLKRGFNNFIDPISPDELAGLAMESEVDSRLVSHQDGKWQVSHGPFESYDHLGETNWSLLVQAVNHWHEPTAALMRPFRELPDWRIDDLMISFSVPGGGVGPHLDQYDVFIIQGTGRRRWRVGEKLQMKQHCPHPDLLQVDPFEAIIDEELEPGDILYIPPGFPHEGYALENAMNYSVGFRAPNTRELISGFADYVLQRELGGNYYSDPDVPPRAHPADVLPQEMDKLREMMLELINQPEHFKQWFGEFISQSRHELDIAPPEPPYQPDEIYDALKQGEVLVRLGGLRVLRIGDDVYANGEKIDSPHRPALDALASNIALTAENFGDALEDPSFLAMLAALVNSGYWFFEG
- position of hydroxylation (2D-NMR after incubation with YcfD) [1]: 2D-NMR analyses revealed the position of hydroxylation as at C-3 of the hydroxylated arginine-residue
- % hydroxylation (+16 Da) [2]: 60%
- % hydroxylation (+16 Da) [3]: 40%
- % hydroxylation (+16 Da) [4]: 40%
- % hydroxylation (+16 Da) [5]: 30%
- % hydroxylation (+16 Da) [6]: 60%
- % hydroxylation (+16 Da) [7]: 95%
- % hydroxylation (+16 Da) [8]: 40%
- % hydroxylation (+16 Da) [9]: 30%
- % hydroxylation (+16 Da) [10]: 60%
- % hydroxylation (+16 Da) [11]: 50%
- % hydroxylation (+16 Da) [12]: 40%
- % hydroxylation (+16 Da) [13]: 90%
- % hydroxylation (+16 Da) [14]: 30%
- +16Da mass shift (hydroxylation, MALDI-TOF MS) [15]: gave a +16Da mass shift upon incubation with YcfD in an Fe(II) and 2OG dependent manner
- % hydroxylation (+16 Da) [16]: 50%
- % hydroxylation (+16 Da) [17]: 40%
